For six substances, Km, kcat and kcat/Km results are on record in article PMC11151596, “Improving the enzymatic activity and stability of N-carbamoyl hydrolase using deep learning approach” (Microbial Cell Factories, 2024).

This data set has as its system T1, NC(=O)NC(C(=O)O)c1ccc(O)cc1.
T1 construct: pET-28a(+)-Case, N- and C-terminal His6 tags, expressed in E. coli BL21(DE3), Ni-NTA purified, about 37 kDa
The data set can be described thus: HPLC of D-HPG formed, double reciprocal plot. The data set is classed as biochemical, Agrobacterium sp. KNK712. The settings on record: 50 mM Tris-HCl pH 7.5, 65 °C, 0.1-10.0 mM CpHPG. The source says:
HPLC of D-HPG formed, double reciprocal plot on DCase (N-carbamoyl-D-amino acid amidohydrolase, EC 3.5.1.77; N-carbamoyl hydrolase)
The term Km denotes the concentration of substrate that gives half-maximal velocity. What is called kcat is the maximal rate divided by the concentration of active sites. In general, kcat/Km refers to the second-order rate constant that governs catalysis at low substrate concentration. Take “DCase (N-carbamoyl-D-amino acid amidohydrolase, EC 3.5.1.77; N-carbamoyl hydrolase) (Agrobacterium sp. KNK712; A302C/Q4C)”: the Km came out at 2560 ± 150 µM, the kcat is 29.2 ± 0.733 s⁻¹ and the kcat/Km came to 11400 ± 516 M⁻¹ s⁻¹.
Regarding “DCase (N-carbamoyl-D-amino acid amidohydrolase, EC 3.5.1.77; N-carbamoyl hydrolase) (Agrobacterium sp. KNK712; A302C/Q4C/T212A)”, the Km stood at 2380 ± 620 µM, the kcat worked out at 30.4 ± 0.703 s⁻¹ and the kcat/Km stood at 12800 ± 572 M⁻¹ s⁻¹.
In the case of “DCase (N-carbamoyl-D-amino acid amidohydrolase, EC 3.5.1.77; N-carbamoyl hydrolase) (Agrobacterium sp. KNK712; A302C/Q4C/T212G)”, the Km turned out to be 2340 ± 260 µM, the kcat turned out to be 36.7 ± 0.658 s⁻¹ and the kcat/Km was determined as 15700 ± 939 M⁻¹ s⁻¹.
The corresponding values for “DCase (N-carbamoyl-D-amino acid amidohydrolase, EC 3.5.1.77; N-carbamoyl hydrolase) (Agrobacterium sp. KNK712; A302C/Q4C/T212S)” are 2120 ± 260 µM, 38.1 ± 0.658 s⁻¹ and 18000 ± 722 M⁻¹ s⁻¹.
With “DCase (N-carbamoyl-D-amino acid amidohydrolase, EC 3.5.1.77; N-carbamoyl hydrolase) (Agrobacterium sp. KNK712; A302C/Q4C/T212V)”, the Km is 2190 ± 260 µM, the kcat stood at 32.9 ± 0.658 s⁻¹ and the kcat/Km worked out at 15000 ± 1200 M⁻¹ s⁻¹.
The like results for “DCase (N-carbamoyl-D-amino acid amidohydrolase, EC 3.5.1.77; N-carbamoyl hydrolase) (Agrobacterium sp. KNK712; Q4C)” were, in that order, 2440 ± 460 µM, 12.6 ± 0.371 s⁻¹ and 5150 ± 265 M⁻¹ s⁻¹.
